The text below walks through data of US20030143208A1, “Oxidative stress-resistant cell lines and methods of use thereof” (priority 2002, published 2003).

Series [1] has as its system TH in cultured dopaminergic neurons. As to conditions: cultured dopaminergic neurons after MPP+ challenge; Pong et al. (22); cited from earlier work.
In series [2] the target is T1, tyrosine hydroxylase (TH) (Rattus norvegicus, UniProt P04177, Y423F).
T1 construct: E. coli expressing the full-length wt-TH, Y423F-TH, Y428F-TH, or Y432F-TH cDNAs; made in house; host or cells: BL21(DE3)pLysS E. coli
T1 sequence (P04177 2-498 Y423F): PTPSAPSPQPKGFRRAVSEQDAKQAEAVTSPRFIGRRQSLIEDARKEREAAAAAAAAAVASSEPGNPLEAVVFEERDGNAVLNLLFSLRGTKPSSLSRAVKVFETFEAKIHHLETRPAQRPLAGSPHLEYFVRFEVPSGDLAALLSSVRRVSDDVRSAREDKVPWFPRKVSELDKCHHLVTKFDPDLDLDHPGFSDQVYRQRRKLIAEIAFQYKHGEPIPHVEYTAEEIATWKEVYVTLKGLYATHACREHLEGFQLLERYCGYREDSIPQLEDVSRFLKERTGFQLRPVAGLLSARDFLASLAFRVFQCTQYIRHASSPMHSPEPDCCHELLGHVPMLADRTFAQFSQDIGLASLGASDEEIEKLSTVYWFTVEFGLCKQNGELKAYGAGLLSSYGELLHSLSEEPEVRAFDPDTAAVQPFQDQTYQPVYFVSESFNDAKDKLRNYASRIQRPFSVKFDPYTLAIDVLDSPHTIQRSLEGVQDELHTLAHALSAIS
Nature of the series: Tyrosine hydroxylase activity assay ([3H]H2O release from [3H]tyrosine) of wt- and mutant-TH, with and without peroxynitrite treatment. The series is classed as biochemical. The protocol: (§1) To further confirm the site of nitration in vivo, the tyrosine residues 423, 428, and 432 were individually mutated to Phe. The Tyr423Phe, Tyr428Phe, and Tyr432Phe mutants were created with the QuikChange™ Site-Directed mutagenesis kit from Stratagene as previously described (25). Wild-type rat TH cDNA (GenBank accession no.: NM-012740) was subcloned into the mammalian pcDNA3.1+ expression vector (invitrogen) and used as the DNA template (25 ng) to create the mutants. Complete DNA sequencing data verified the presence of the appropriate mutation in the coding sequences of all recombinant proteins.
(§2) Recombinant wt- and mutant TH were isolated and purified from BL21(DE3)pLysS E. coli expressing the full-length wt-TH, Y423F-TH, Y428F-TH, or Y432F-TH cDNAs. Following isolation enzyme activity was assayed after treatment with peroxynitrite as previously described (25 and 26). Briefly, wt- or mutant-TH were exposed to several concentrations of peroxynitrite under identical conditions, in phosphate buffer 0.1 M containing DTPA 0.1 mM at pH 7.4. The activity of TH was assayed by the release of [^3H]H2O from [^3H]tyrosine in the presence of catalase. The specific activity of the partially purified Tyr423Phe mutant TH was 20% of the wild type TH. It is also shown that the enzyme activity of the wild type, and the Tyr428Phe and Tyr432Phe mutants were inhibited by exposure to nitrating and oxidizing concentrations of peroxynitrite (FIG. 3A). […] Enzymatic activity was assessed using a standard assay and the Lovenberg assay as described in (26) (FIGS. 3B and 3C).

Series [3] has as its system tyrosine hydroxylase (TH). Described as above. It counts as biochemical, rat. As to conditions: nitrating and oxidizing concentrations of peroxynitrite, phosphate buffer 0.1 M, DTPA 0.1 mM, pH 7.4, FIG. 3A. On the procedure: as §1, §2
In series [4] the target is tyrosine hydroxylase (TH) (Rattus norvegicus, UniProt P04177). Nature of the series: Nitration of TH by peroxynitrite in vitro. As to conditions: recombinantly purified TH treated with peroxynitrite in vitro. It counts as biochemical. From the text:
Cysteine, methionine, tryptophan and tyrosine appear to be the principal amino acids in proteins modified by peroxynitrite in vitro (9-14). To resolve the apparent differences, the reaction of peroxynitrite with recombinantly purified rat TH in vitro was re-examined and no evidence of cysteine oxidation was found. Oxidation of one cysteine residue per molecule of TH was observed only at high peroxynitrite concentrations, and three cysteine residues were oxidized in partially unfolded protein.

Entries after “also recorded” stand apart in the source; their conditions may differ.

Chain of tyrosine hydroxylase (TH) (Rattus norvegicus, UniProt P04177) (P04177 whole entry): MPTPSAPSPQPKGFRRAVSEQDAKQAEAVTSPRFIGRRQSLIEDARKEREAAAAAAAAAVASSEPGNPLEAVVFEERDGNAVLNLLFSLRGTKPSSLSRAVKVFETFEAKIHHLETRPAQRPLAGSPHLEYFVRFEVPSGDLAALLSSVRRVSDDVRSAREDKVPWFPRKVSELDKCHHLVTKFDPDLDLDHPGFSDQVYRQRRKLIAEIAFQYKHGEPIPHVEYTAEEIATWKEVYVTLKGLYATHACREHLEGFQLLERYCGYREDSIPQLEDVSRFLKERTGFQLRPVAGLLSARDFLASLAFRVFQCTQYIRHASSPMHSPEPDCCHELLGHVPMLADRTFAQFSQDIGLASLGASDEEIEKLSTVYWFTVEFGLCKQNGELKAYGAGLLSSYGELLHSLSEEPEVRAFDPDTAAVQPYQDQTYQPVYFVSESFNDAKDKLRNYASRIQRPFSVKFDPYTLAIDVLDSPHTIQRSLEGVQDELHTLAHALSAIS

Consider `COc1cccc(C=NCCN=Cc2cccc(OC)c2[O-])c1[O-].[Cl-].[Mn+3]` [EUK134], for which the “nitration of TH” value in series [1] is given as “prevented nitration of TH”.
As for “Tyr423Phe mutant TH: rat tyrosine hydroxylase in which Tyr423 was substituted with Phe”, the “resistance to inactivation by different concentrations of peroxynitrite compared to wild type TH, Lovenberg assay” value in series [2] (cell lysates, Lovenberg assay, FIG. 3C) is listed as “resist inactivation”. The “resistance to inactivation by different concentrations of peroxynitrite compared to wild type TH” value in series [2] (cell lysates, standard assay, FIG. 3B) is “resist inactivation”. Also, the “specific activity relative to wild type TH” value in series [2] (partially purified protein, % of the wild type TH) is 20%. Moreover, the “TH enzymatic activity after exposure to peroxynitrite” value (“TH enzymatic activity after exposure” for short) was “no significant loss of enzymatic activity” in series [3] (listed as Tyr423 Phe mutant) and “no loss in TH enzymatic activity; also recorded: unaffected” in series [3] (listed as Tyr423Phe mutant). The nitration by peroxynitrite entry in series [4] was “lack of nitration”.
Turning to “Tyr428Phe: rat tyrosine hydroxylase mutant with tyrosine residue 428 mutated to Phe”, the “TH enzymatic activity after exposure” value in series [3] is recorded as “inhibited”.
Turning to “Tyr432Phe: rat tyrosine hydroxylase mutant with tyrosine residue 432 mutated to Phe”, in series [3], the “TH enzymatic activity after exposure” value was “inhibited”.
Turning to “wild type: recombinant wild-type rat tyrosine hydroxylase (GenBank accession no. NM-012740) [reference compound]”, the “TH enzymatic activity after exposure” value in series [3] was “inhibited”.
